# Experimental data from publication PMC6769930, “Endoglin Protein Interactome Profiling Identifies TRIM21 and Galectin-3 as New Binding Partners” (Cells, 2019).
# T1: recombinant human soluble endoglin (sEng; Glu26-Gly586) (human, UniProt P17813 26-586)
# T1 construct: human endoglin (CD105), extracellular domain, Glu26-Gly586; The same bought protein was the probe of the array and the analyte of the BLI; also called recombinant human endoglin/CD105 protein; source: bought: R&D Systems (1097-EN), purified recombinant
# T1 sequence (looked up): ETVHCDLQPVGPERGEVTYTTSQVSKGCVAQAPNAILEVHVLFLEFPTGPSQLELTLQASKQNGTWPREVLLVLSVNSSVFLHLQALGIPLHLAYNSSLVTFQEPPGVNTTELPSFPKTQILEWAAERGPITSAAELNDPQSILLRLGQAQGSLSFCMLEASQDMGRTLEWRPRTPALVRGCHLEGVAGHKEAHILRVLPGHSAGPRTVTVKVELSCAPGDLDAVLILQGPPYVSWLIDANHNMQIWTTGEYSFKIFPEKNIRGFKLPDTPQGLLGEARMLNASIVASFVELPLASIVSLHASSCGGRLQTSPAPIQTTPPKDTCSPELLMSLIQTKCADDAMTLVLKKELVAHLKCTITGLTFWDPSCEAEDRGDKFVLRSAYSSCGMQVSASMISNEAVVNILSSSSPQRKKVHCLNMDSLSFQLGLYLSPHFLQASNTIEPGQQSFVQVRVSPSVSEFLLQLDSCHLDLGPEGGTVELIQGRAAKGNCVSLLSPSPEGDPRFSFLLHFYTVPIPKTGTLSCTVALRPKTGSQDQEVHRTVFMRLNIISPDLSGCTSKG
# B1: Potassium voltage-gated channel, shaker-related subfamily, beta member 1 (KCNAB1), transcript variant 1 (natural protein, human, UniProt Q14722-1 1-419, looked up)
# chain: MLAARTGAAGSQISEENTKLRRQSGFSVAGKDKSPKKASENAKDSSLSPSGESQLRARQLALLREVEMNWYLKLCDLSSEHTTVCTTGMPHRNLGKSGLRVSCLGLGTWVTFGGQISDEVAERLMTIAYESGVNLFDTAEVYAAGKAEVILGSIIKKKGWRRSSLVITTKLYWGGKAETERGLSRKHIIEGLKGSLQRLQLEYVDVVFANRPDSNTPMEEIVRAMTHVINQGMAMYWGTSRWSAMEIMEAYSVARQFNMIPPVCEQAEYHLFQREKVEVQLPELYHKIGVGAMTWSPLACGIISGKYGNGVPESSRASLKCYQWLKERIVSEEGRKQQNKLKDLSPIAERLGCTLPQLAVAWCLRNEGVSSVLLGSSTPEQLIENLGAIQVLPKMTSHVVNEIDNILRNKPYSKKDYRS
# notes: human KCNAB1, transcript variant 1; source: bought: ProtoArray human protein Microarray v5.0 (Life Technologies), individually purified and arrayed
# B2: Spliceosome-associated protein CWC15 homolog (HSPC148) (natural protein, human, UniProt Q9P013 1-229, looked up)
# chain: MTTAARPTFEPARGGRGKGEGDLSQLSKQYSSRDLPSHTKIKYRQTTQDAPEEVRNRDFRRELEERERAAAREKNRDRPTREHTTSSSVSKKPRLDQIPAANLDADDPLTDEEDEDFEEESDDDDTAALLAELEKIKKERAEEQARKEQEQKAEEERIRMENILSGNPLLNLTGPSQPQANFKVKRRWDDDVVFKNCAKGVDDQKKDKRFVNDTLRSEFHKKFMEKYIK
# notes: human spliceosome-associated protein CWC15 homolog; source: bought: ProtoArray human protein Microarray v5.0 (Life Technologies), individually purified and arrayed
# B3: HIRA interacting protein 3 (HIRIP3) (natural protein, human, UniProt Q9BW71-1 1-556, looked up)
# chain: MAREKEMQEFTRSFFRGRPDLSTLTHSIVRRRYLAHSGRSHLEPEEKQALKRLVEEELLKMQVDEAASREDKLDLTKKGKRPPTPCSDPERKRFRFNSESESGSEASSPDYFGPPAKNGVAAEVSPAKEENPRRASKAVEESSDEERQRDLPAQRGEESSEEEEKGYKGKTRKKPVVKKQAPGKASVSRKQAREESEESEAEPVQRTAKKVEGNKGTKSLKESEQESEEEILAQKKEQREEEVEEEEKEEDEEKGDWKPRTRSNGRRKSAREERSCKQKSQAKRLLGDSDSEEEQKEAASSGDDSGRDREPPVQRKSEDRTQLKGGKRLSGSSEDEEDSGKGEPTAKGSRKMARLGSTSGEESDLEREVSDSEAGGGPQGERKNRSSKKSSRKGRTRSSSSSSDGSPEAKGGKAGSGRRGEDHPAVMRLKRYIRACGAHRNYKKLLGSCCSHKERLSILRAELEALGMKGTPSLGKCRALKEQREEAAEVASLDVANIISGSGRPRRRTAWNPLGEAAPPGELYRRTLDSDEERPRPAPPDWSHMRGIISSDGESN
# notes: source: bought: ProtoArray human protein Microarray v5.0 (Life Technologies), individually purified and arrayed
# B4: RAD51 associated protein 1 (RAD51AP1) (natural protein, human, UniProt Q96B01-2 1-335, looked up)
# chain: MVRPVRHKKPVNYSQFDHSDSDDDFVSATVPLNKKSRTAPKELKQDKPKPNLNNLRKEEIPVQEKTPKKRMALDDKLYQRDLEVALALSVKELPTVTTNVQNSQDKSIEKHGSSKIETMNKSPHISNCSVASDYLDLDKITVEDDVGGVQGKRKAASKAAAQQRKILLEGSDGDSANDTEPDFAPGEDSEDDSDFCESEDNDEDFSMRKSKVKEIKKKEVKVKSPVEKKEKKSKSKCNALVTSVDSAPAAVKSESQSLPKKVSLSSDTTRKPLEIRSPSAESKKPKWVPPAASGGSRSSSSPLVVVSVKSPNQSLRLGLSRLARVKPLHPNATST
# notes: human RAD51 associated protein 1; source: bought: ProtoArray human protein Microarray v5.0 (Life Technologies), individually purified and arrayed
# B5: Origin recognition complex, subunit 6 like (yeast) (ORC6L) (natural protein, human, UniProt Q9Y5N6 1-252, looked up)
# chain: MGSELIGRLAPRLGLAEPDMLRKAEEYLRLSRVKCVGLSARTTETSSAVMCLDLAASWMKCPLDRAYLIKLSGLNKETYQSCLKSFECLLGLNSNIGIRDLAVQFSCIEAVNMASKILKSYESSLPQTQQVDLDLSRPLFTSAALLSACKILKLKVDKNKMVATSGVKKAIFDRLCKQLEKIGQQVDREPGDVATPPRKRKKIVVEAPAKEMEKVEEMPHKPQKDEDLTQDYEEWKRKILENAASAQKATAE
# notes: human origin recognition complex subunit 6; source: bought: ProtoArray human protein Microarray v5.0 (Life Technologies), individually purified and arrayed
# B6: Cortactin (CTTN), transcript variant 2 (natural protein, human, UniProt Q14247-3 1-513, looked up)
# chain: MWKASAGHAVSIAQDDAGADDWETDPDFVNDVSEKEQRWGAKTVQGSGHQEHINIHKLRENVFQEHQTLKEKELETGPKASHGYGGKFGVEQDRMDKSAVGHEYQSKLSKHCSQVDSVRGFGGKFGVQMDRVDQSAVGFEYQGKTEKHASQKDYSSGFGGKYGVQADRVDKSAVGFDYQGKTEKHESQRDYSKGFGGKYGIDKDKVDKSAVGFEYQGKTEKHESQKDYVKGFGGKFGVQTDRQDKCALGWDHQEKLQLHESQKDYSKGFGGKYGVQKDRMDKNASTFEDVTQVSSAYQKTVPVEAVTSKTSNIRANFENLAKEKEQEDRRKAEAERAQRMAKERQEQEEARRKLEEQARAKTQTPPVSPAPQPTEERLPSSPVYEDAASFKAELSYRGPVSGTEPEPVYSMEAADYREASSQQGLAYATEAVYESAEAPGHYPAEDSTYDEYENDLGITAVALYDYQAAGDDEISFDPDDIITNIEMIDDGWWRGVCKGRYGLFPANYVELRQ
# notes: as for B3
# B7: Coiled-coil domain containing 55 (CCDC55), transcript variant 1 (natural protein, human, UniProt Q9H0G5 1-558, looked up)
# chain: MAIPGRQYGLILPKKTQQLHPVLQKPSVFGNDSDDDDETSVSESLQREAAKKQAMKQTKLEIQKALAEDATVYEYDSIYDEMQKKKEENNPKLLLGKDRKPKYIHNLLKAVEIRKKEQEKRMEKKIQREREMEKGEFDDKEAFVTSAYKKKLQERAEEEEREKRAAALEACLDVTKQKDLSGFYRHLLNQAVGEEEVPKCSFREARSGIKEEKSRGFSNEVSSKNRIPQEKCILQTDVKVEENPDADSDFDAKSSADDEIEETRVNCRREKVIETPENDFKHHRSQNHSRSPSEERGHSTRHHTKGSRTSRGHEKREDQHQQKQSRDQENHYTDRDYRKERDSHRHREASHRDSHWKRHEQEDKPRARDQRERSDRVWKREKDREKYSQREQERDRQQNDQNRPSEKGEKEEKSKAKEEHMKVRKERYENNDKYRDREKREVGVQSSERNQDRKESSPNSRAKDKFLDQERSNKMRNMAKDKERNQEKPSNSESSLGAKHRLTEEGQEKGKEQERPPEAVSKFAKRNNEETVMSARDRYLARQMARVNAKTYIEKEDD
# notes: human CCDC55, transcript variant 1; source: bought: ProtoArray human protein Microarray v5.0 (Life Technologies), individually purified and arrayed
# B8: Family with sequence similarity 126, member B (FAM126B) (natural protein, human, UniProt Q8IXS8 1-530, looked up)
# chain: MLGTDRCVVEEWLSEFKALPDTQITSYAATLHRKKTLVPALYKVIQDSNNELLEPVCHQLFELYRSSEVRLKRFTLQFLPELMWVYLRLTVSRDRQSNGCIEALLLGIYNLEIADKDGNNKVLSFTIPSLSKPSIYHEPSTIGSMALTEGALCQHDLIRVVYSDLHPQRETFTAQNRFEVLSFLMLCYNSAIVYMPASSYQSLCRMGSRVCVSGFPRQHEKHWKELCGRIVLDPEFMVQLLTGVYYAMYNGQWDLGQEVLDDIIYRAQLELFSQPLLVANAMKNSLPFDAPDSTQEGQKVLKVEVTPTVPRISRTAITTASIRRHRWRREGAEGVNGGEESVNLNDADEGFSSGASLSSQPIGTKPSSSSQRGSLRKVATGRSAKDKETASAIKSSESPRDSVVRKQYVQQPTDLSVDSVELTPMKKHLSLPAGQVVPKINSLSLIRTASASSSKSFDYVNGSQASTSIGVGTEGGTNLAANNANRYSTVSLQEDRLGQAGEGKELLSPGAPLTKQSRSPSFNMQLISQV
# notes: human FAM126B; source: bought: ProtoArray human protein Microarray v5.0 (Life Technologies), individually purified and arrayed
# B9: Family with sequence similarity 39, member B (FAM39B) (natural protein, human, UniProt Q6VEQ5 1-465, looked up)
# chain: MTPVRMQHSLAGQTYAVPLIQPDLRREEAVQQMADALQYLQKVSGDIFSRISQQVEQSRSQVQAIGEKVSLAQAKIEKIKGSKKAIKVFSSAKYPAPERLQEYGSIFTGAQDPGLQRRPRHRIQSKHRPLDERALQEKLKDFPVCVSTKPEPEDDAEEGLGGLPSNISSVSSLLLFNTTENLYKKYVFLDPLAGAVTKTHVMLGAETEEKLFDAPLSISKREQLEQQVPENYFYVPDLGQVPEIDVPSYLPDLPGIANDLMYIADLGPGIAPSAPGTIPELPTFHTEVAEPLKVDLQDGVLTPPPPPPPPPPAPEVLASAPPLPPSTAAPVGQGARQDDSSSSASPSVQGAPREVVDPSGGRATLLESIRQAGGIGKAKLRSMKERKLEKKKQKEQEQVRATSQGGHLMSDLFNKLVMRRKGISGKGPGAGEGPGGAFARVSDSIPPLPPPQQPQAEEDEDDWES
# notes: human FAM39B; source: bought: ProtoArray human protein Microarray v5.0 (Life Technologies), individually purified and arrayed
# Target: T1, recombinant human soluble endoglin …
# Assay: peptide or protein array; ProtoArray human protein Microarray v5.0 (over 9000 human proteins arrayed) probed with recombinant sEng in two replicates; detection with anti-endoglin mAb SN6h and HRP secondary antibody; hits with Z-score >=2.0 in both arrays
# Settings: both partners purified
row,Binder,binding result
1,B1,binds
2,B2,binds
3,B3,binds
4,B4,binds
5,B5,binds
6,B6,binds
7,B7,binds
8,B8,binds
9,B9,binds
